The source of these data is US6511816B1, “DNA gyrase-inhibiting proteins” (priority 1996, dated 2003).

In series [1] the target is Escherichia coli DNA gyrase (subunit A and subunit B) (Escherichia coli) (UniProt P0AES4). The series is described as follows: cell-based or functional assay.
Series [2] has as its system E. coli GI724 (pCA17) strain. Kind of series: Microscopic observation of strains expressing a large amount of DGI. Format: cell-based, Escherichia coli. As to conditions: tryptophan-induced expression from pCA17.
In series [3] the target is Escherichia coli DNA gyrase (subunit A and subunit B) (Escherichia coli, UniProt P0AES4+P0AES6).
Escherichia coli DNA gyrase (subunit A and subunit B), sequence (P0AES4 whole entry, one chain of several): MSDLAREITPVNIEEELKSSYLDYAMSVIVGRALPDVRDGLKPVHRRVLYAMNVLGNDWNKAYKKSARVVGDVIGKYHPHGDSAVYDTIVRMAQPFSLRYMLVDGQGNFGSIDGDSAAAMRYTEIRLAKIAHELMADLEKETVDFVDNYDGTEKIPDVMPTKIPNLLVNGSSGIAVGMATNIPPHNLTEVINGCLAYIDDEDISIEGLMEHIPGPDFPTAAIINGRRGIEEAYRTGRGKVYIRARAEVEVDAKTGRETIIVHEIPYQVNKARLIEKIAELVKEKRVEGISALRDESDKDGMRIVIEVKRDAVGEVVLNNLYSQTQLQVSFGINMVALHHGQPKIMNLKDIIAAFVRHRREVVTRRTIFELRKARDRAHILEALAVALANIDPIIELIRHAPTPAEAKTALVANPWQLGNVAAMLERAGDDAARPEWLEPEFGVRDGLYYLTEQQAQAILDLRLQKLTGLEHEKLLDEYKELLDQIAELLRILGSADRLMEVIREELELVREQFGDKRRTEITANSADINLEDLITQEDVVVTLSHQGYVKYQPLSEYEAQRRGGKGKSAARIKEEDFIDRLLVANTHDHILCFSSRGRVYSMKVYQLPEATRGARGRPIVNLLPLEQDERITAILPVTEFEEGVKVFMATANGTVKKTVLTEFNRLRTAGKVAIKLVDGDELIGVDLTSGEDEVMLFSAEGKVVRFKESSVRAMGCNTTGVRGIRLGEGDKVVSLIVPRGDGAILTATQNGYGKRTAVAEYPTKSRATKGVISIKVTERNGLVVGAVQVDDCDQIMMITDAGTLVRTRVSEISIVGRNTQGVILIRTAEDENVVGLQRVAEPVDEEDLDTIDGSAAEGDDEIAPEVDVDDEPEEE
Experimental: Using the purified DGI obtained in Example 4 above, DGI activity, i.e. the inhibiting activity against DNA gyrase activity (supercoiling activity), was measured. Each 5 μl of DNA gyrase subunit A (1U) and subunit B (1U) were each added to a reaction mixture for activity measurement (20 mM Tris-HCl (pH7.5), 20 mM KCl, 4 mM MgCl2, 4 mM spermidine, 1.5 mM ATP, 1 mM DTT, 30 μg/ml t-RNA, 15 μg/ml BSA and 0.1 μg relaxed pBR322 DNA), and DGI (protein concentration 25, 12.5, 6.25, 3.13, 1.56, 0.78 or 0.39 μg/ml) was added thereto for the reaction for 1 hour at 37° C. After stopping the reaction by addition of 3 μl of proteinase K (1 mg/ml) while keeping the temperature at 37° C. for 30 minutes, the reaction mixture was subjected to electrophoresis with 0.8% agarose gel, dyed with a 0.5 μg/ml solution of ethidium bromide and photographed under radiation of the ultraviolet rays. The amount of super-coiled DNA was measured with a densitometer (Shimadzu-wavelength flying spot scanner CS-9000, available from Shimadzu Seisakusho Co.). The presence or absence of DNA gyrase-inhibiting activity was assayed by comparing the supercoiled DNA amounts obtained when DGI protein was added, with those obtained when no DGI protein was added.
0.5 μg of pBR322 DNA (the supercoiled type, available from Takara Shuzo Co.) and 1 μl of topoisomerase I (available from Takara Shuzo Co.)(6 U/μl) were added to 20 μl of a reaction liquid (35 mM Tris-HCl (pH 8.0), 72 mM KCl, 5 mM MgCl2, 5 mM DTT, 5 mM spermidine and 0.01% bovine serum albumin) and reacted for 2 hours at 37° C. to prepare relaxed pBR322 DNA. […] As for the enzyme activity, the enzyme amount necessary to convert 50% of the amount of the relaxed plasmid DNA into the supercoiled DNA was expressed as one unit (U).
The test system of another series is E. coli GI724 strain. The series is described as follows: Growth of antisense RNA-expressing strain with tryptophan induction. Format: cell-based, Escherichia coli. Particulars: for turbidity OD600 / number of living cells: tryptophan added. The procedure:
An antisense expression vector was prepared by inserting a fragment containing the translation region of dgi gene (a fragment corresponding to the 255th-728th bases of Sequence ID NO:6) into the downstream of tryptophan (trp) promoter of vector plasmid pLEX (available from Invitrogen Co.).
The vector was introduced into E. coli GI724 strain. The antisense RNA-expressing strain thus obtained was cultured under the condition of with or without adding tryptophan, and the change with the lapse of time in the number of living cells and turbidity (OD600) was measured. When expression induction by adding tryptophan was not carried out, the number of living cells and turbidity after 24 hours were increased up to 1×10^9 cfu/ml and 1.0, respectively. […] It has been reported that such abnormality in morphology was also observed when E. coli was treated with a new quinolone gyrase inhibitor (Takeshi Nishino et al., Chemotherapy, vol. 41(s-5), pp. 50-66, 1993). From the above result, it is considered that in E. coli wherein expression of dgi antisense RNA is induced, expression of dgi gene is repressed and the normal growth of bacteria is inhibited. In other words, a medical agent which inhibits the expression of dgi gene is useful as an antimicrobial agent.

Escherichia coli DNA gyrase (subunit A and subunit B) (Escherichia coli), sequence (P0AES4 2-875 limits assumed): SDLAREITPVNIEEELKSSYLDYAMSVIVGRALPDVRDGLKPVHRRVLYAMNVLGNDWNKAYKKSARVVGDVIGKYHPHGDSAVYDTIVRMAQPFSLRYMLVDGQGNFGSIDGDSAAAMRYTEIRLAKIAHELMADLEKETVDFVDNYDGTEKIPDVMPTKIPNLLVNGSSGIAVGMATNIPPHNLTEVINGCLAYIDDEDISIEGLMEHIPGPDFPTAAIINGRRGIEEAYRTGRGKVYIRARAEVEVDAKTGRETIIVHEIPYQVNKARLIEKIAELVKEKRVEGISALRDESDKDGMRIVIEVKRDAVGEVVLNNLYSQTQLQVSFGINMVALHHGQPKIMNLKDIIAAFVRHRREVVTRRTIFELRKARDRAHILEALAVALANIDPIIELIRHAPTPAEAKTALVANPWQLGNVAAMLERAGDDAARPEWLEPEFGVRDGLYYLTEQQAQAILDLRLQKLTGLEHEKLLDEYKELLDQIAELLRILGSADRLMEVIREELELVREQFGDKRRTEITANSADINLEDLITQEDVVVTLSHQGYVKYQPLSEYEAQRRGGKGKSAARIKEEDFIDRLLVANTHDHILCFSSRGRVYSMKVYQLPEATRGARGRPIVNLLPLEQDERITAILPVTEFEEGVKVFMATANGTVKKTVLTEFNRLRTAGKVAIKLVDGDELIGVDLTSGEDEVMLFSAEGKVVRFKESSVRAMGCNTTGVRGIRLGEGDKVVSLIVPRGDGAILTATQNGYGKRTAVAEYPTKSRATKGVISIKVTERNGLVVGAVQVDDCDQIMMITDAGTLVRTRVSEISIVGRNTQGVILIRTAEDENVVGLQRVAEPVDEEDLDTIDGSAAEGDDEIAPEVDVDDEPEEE

Regarding “DNA gyrase-inhibiting protein (DGI) derived from Escherichia coli (from UniProt B2TYH1 1-157)”, in series [1], the supercoiling activity of DNA gyrase (relaxed pBR322 DNA, agarose gel) is 8 µg/ml and the supercoiling activity of DNA gyrase (relaxed pBR322 DNA, agarose gel, densitometry) was above 6 µg/ml.

B1: DGI: about 18 kDa Escherichia coli protein inhibiting DNA gyrase supercoiling activity, Sequence ID NO:7 (protein)
chain: MNYEIKQEEKRTVAGFHLVGPWEQTVKKGFEQLMMWVDSKNIVPKEWVAVYYDNPDETPAEKLRCDTVVTVPGYFTLPENSEGVILTEITGGQYAVAVARVVGDDFAKPWYQFFNSLLQDSAYEMLPKPCFEVYLNNGAEDGYWDIEMYVAVQPKHH
modifications: Escherichia coli strain KL16
With B1, in series [2], the “morphology of strains expressing a large amount of DGI” value is “lank and elongated”. Moreover, the “concentration perfectly inhibiting the supercoiling activity of DNA gyrase” value in series [3] (purified DGI isolated from Fraction No. 32 by Sephadex G-75, relaxed pBR322 DNA, subunit A 1 U, subunit B 1 U) was 8 µg/mL. Moreover, the “concentration completely inhibiting the supercoiling activity of DNA gyrase” value in series [3] (recombinant purified DGI of Example 4, 1 hour at 37° C., tested 25 to 0.39 μg/ml) is at least 6 µg/mL. Moreover, in series [3] (recombinant purified DGI of Example 4, below 6 μg/ml), the “conversion to supercoiled DNA at concentration lower than 6 μg/ml” value is “ended in an incomplete state”.

B2: dgi gene antisense RNA: antisense RNA expressed from pLEX carrying the dgi fragment (255th-728th bases of Sequence ID NO:6) (nucleic acid)
antisense: ATGAACTACGAGATTAAGCAGGAAGAGAAACGTACCGTTGCAGGTTTCCATCTCGTTGGCCCGTGGGAACAGACGGTAAAGAAAGGCTTTGAGCAGTTGATGATGTGGGTAGATAGCAAAAATATTGTGCCGAAGGAGTGGGTTGCTGTCTATTACGACAATCCAGATGAAACACCCGCCGAAAAATTACGCTGCGACACCGTCGTGACGGTGCCGGGTTACTTTACGCTTCCCGAAAACAGTGAGGGCGTCATTCTGACAGAAATTACAGGTGGTCAGTATGCGGTGGCGGTAGCTCGTGTAGTCGGTGATGATTTTGCTAAACCCTGGTATCAGTTCTTTAATAGTCTCTTGCAGGACAGTGCTTATGAAATGTTACCAAAGCCCTGCTTCGAGGTTTATTTGAACAATGGCGCGGAAGATGGGTACTGGGATATCGAAATGTATGTTGCGGTGCAGCCAAAACATCACTAA
modifications: antisense orientation RNA; Escherichia coli strain KL16
Take B2: in the series on E. coli GI724 strain (antisense RNA-expressing strain), the morphology of bacteria entry is “elongation of the bacteria was observed”. For the same molecule, the “turbidity OD600” value was 0.4 with E. coli GI724 strain (8 hours after the addition) and around 0.5 in the series on E. coli GI724 strain (after 24 hours). Further, the figures for the “number of living cells” value in the series on E. coli GI724 strain (8 hours after the addition (from 4×10^7 cfu/ml)) and in the series with E. coli GI724 strain (after 24 hours) were 1×10^8 cfu/ml and 5×10^6 cfu/ml, respectively.
